According to patent US7704703B2, “Arf and Hdm2 interaction domains and the methods of use thereof” (St. Jude Children's Research Hospital, Inc., priority 2002, dated 2010):
Where no end group is shown, it is not given here.

What was measured:
Hdm2 210-304 [1] = target: T1, Hdm2 210-304 (Homo sapiens, UniProt Q00987); experiment: Surface plasmon resonance: Arf library peptides binding to immobilized His-tagged Hdm2 210-304; details: 15 amino acid peptides; maximal SPR signal after binding for 10 minutes
T1 construct: poly-His (thrombin cleavable, pET28a) (cleaved yes); made in house; host or cells: E. coli BL21(DE3)
T1 sequence (Q00987 210-304): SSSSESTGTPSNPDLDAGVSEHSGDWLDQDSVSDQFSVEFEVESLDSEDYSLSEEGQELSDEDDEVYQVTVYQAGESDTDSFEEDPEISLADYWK
Method: Surface Plasmon Resonance. Binding studies were performed using a Biacore 3000 surface plasmon resonance (SPR) instrument (Biacore, Inc.). A Tetra-His™ Antibody (Qiagen, Inc.; Cat. #34670) was covalently attached to a carboxymethylated gold surface (C-1 chip; Biacore, Inc.). The carboxymethyl groups on the surface were activated with N-ethyl-N′-(3-dimethylaminopropyl) carbodiimide (EDC) and N-hydroxysuccinimide (NHS) and the antibody was attached at pH 7.4 in 20 mM sodium phosphate buffer, 150 mM NaCl (PBS). Reactive sites remaining on the surface were blocked by reaction with ethanolamine. […] Binding was measured by flowing the non-His-tagged analyte through the reference and ligand-containing flow cells in sequence. […] Changes in the SPR response due to solvent differences and the injection process were monitored by injection of HBS-N buffer alone. […]
Two libraries of peptides 15 amino acids in length were synthesized based on the sequence of exon 1β of mouse p19^Arf and the entire sequence of human p14^Arf. […] The ability of these peptides to bind Hdm2 fragments was determined using the surface plasmon resonance (SPR) technique with a Biacore 3000 instrument. […] Relative binding affinity was judged on the basis of the maximal SPR signal detected after binding for 10 minutes.

Hdm2 210-304 [2] = target: T1, Hdm2 210-304; experiment: CD-based binding assay, induction of β-strand secondary structure with Hdm2 210-304
Method: Circular Dichroism. Spectra were recorded at 25° C. using an Aviv Model 62A DS circular dichroism spectropolarimeter (Aviv Instruments, Inc.) equipped with a thermoelectric temperature control unit. All samples were prepared in 10 mM Tris-HCl, pH 7.0 at 0.02-0.2 mM as determined by amino acid analysis. Spectra were recorded using 1 mm quartz cuvettes and reported spectra are the average of 10 scans over the range […]. Melting experiments were recorded in 10 mm quartz cuvettes with active stirring. The signal at 216 nm (β strand minimum) was used to monitor structural changes and the signal was averaged over 15 sec. The sample temperature was increased in 1° C. steps. […]
Characterization of Arf Hdm2 assemblies. […] The binding of mArfN37 to Hdm2 210-304, as monitored in this way, is saturable. […]
To investigate the roles of individual Arf motifs (A1 and A2) and Arf-binding segments of Hdm2 (H1 and H2) in the interactions between Arf and Hdm2 the binding of peptides containing these small segments (A1, A2, H1, or H2) to larger protein fragments of the corresponding binding partner (mArfN37 or Hdm2 210-304) were monitored using the CD-based binding assay. […] Peptides from the Hdm2 library that were positive for mArfN37 binding on the basis of SPR (i.e. those within H1 and H2) were mixed with mArfN37 and binding was monitored in the same manner. […]

Hdm2 210-275 = target: T2, Hdm2 210-275 (Homo sapiens, UniProt Q00987); experiment: CD-based binding assay, induction of β-strand secondary structure with Hdm2 210-275
T2 construct: poly-His (thrombin cleavable, pET28a) (cleaved yes); made in house; host or cells: E. coli BL21(DE3)
T2 sequence (Q00987 210-275): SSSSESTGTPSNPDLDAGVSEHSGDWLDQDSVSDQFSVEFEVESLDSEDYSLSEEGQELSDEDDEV
Method: Circular Dichroism. Spectra were recorded at 25° C. using an Aviv Model 62A DS circular dichroism spectropolarimeter (Aviv Instruments, Inc.) equipped with a thermoelectric temperature control unit. All samples were prepared in 10 mM Tris-HCl, pH 7.0 at 0.02-0.2 mM as determined by amino acid analysis. Spectra were recorded using 1 mm quartz cuvettes and reported spectra are the average of 10 scans over the range […]. Melting experiments were recorded in 10 mm quartz cuvettes with active stirring. The signal at 216 nm (β strand minimum) was used to monitor structural changes and the signal was averaged over 15 sec. The sample temperature was increased in 1° C. steps.
β-strand secondary structure forms when Arf and Hdm2 interact. […] This structural transition is induced when mArfN37 is added to an Hdm2 fragment and when an Hdm2 fragment is added to mArfN37. […] In contrast, the uncomplexed species elute at times consistent with monodisperse, conformationally extended polypeptides. Second, NMR resonances for ^15N-mArfN37 or ^15N-Hdm2 210-304 (and ^15N-Hdm2 210-275) are broadened beyond detection when an unlabeled form of the appropriate binding partner is added to the solution. At mArfN37:Hdm2 210-304 (or mArfN37:Hdm2 210-275) molar ratios that produce maximal β-strand secondary structure based on ellipticity at 200 nm using CD, resonances cannot be observed for the isotope-labeled component of Arf/Hdm2 mixtures. Further, the NMR spectra are consistent with slow exchange between the free and bound states.
Characterization of Arf Hdm2 assemblies. As discussed above, the addition of mArfN37 to Hdm2 210-304 results in the formation of supramolecular assemblies comprised of β-strands. Stepwise addition of sub-stoichiometric amounts of mArfN37 to Hdm2 210-304 increased β-strand secondary structure content as judged by the change in ellipticity at 200 nm using CD. […] The binding of mArfN37 to Hdm2 210-304, as monitored in this way, is saturable. Similar results were obtained when mArfN37 was mixed with the shorter fragment of Hdm2, Hdm2 210-275. Further, saturable binding is also observed when the Hdm2 fragments were added to an excess of mArfN37. These findings indicate that there are a limited number of binding sites for mArfN37 within Hdm2 210-304 and that discreet structures (containing β-strands) form when mArfN37 and Hdm2 210-304 (or 210-275) are mixed. […] Similar behavior is observed when mArfN37 binds Hdm2 210-275.

Substance	binding of Arf library peptides to Hdm2 210-304 (SPR) (Hdm2 210-304 [1])	induction of β-strand secondary structure when mixed with Hdm2 210-304 (CD) (Hdm2 210-304 [2])	induction of β-strand secondary structure/assembly when mixed with Hdm2 210-275 (CD) (Hdm2 210-275)
mouse Arf peptide residues 31-45: mouse p19^Arf library 15-mer spanning residues 31-45, contains the RRPR nucleolar localization signal (RRPRTASCALAFVNM; UniProt Q64364 31-45, looked up, fragment)	bind Hdm2 210-304		
human Arf peptide residues 86-100: human p14^Arf library 15-mer spanning residues 86-100, contains the NoLS RRPR (LRRPRHSHPTRARRC; UniProt Q8N726 86-100, looked up, fragment)	binds Hdm2 210-304		
mArfN37: peptide containing the N-terminal 37 amino acids of mouse Arf (p19^Arf residues 1-37, SEQ ID NO:16) (MGRRFLVTVRIQRAGRPLQERVFLVKFVRSRRPRTAS; also: His tag; listed as Mus musculus)		transition from random conformations to β-strand secondary structure	transition from random conformations to β-strand secondary structure
